Reference: the DeepSol protein solubility set

Test: soluble on expression in E. coli; label from the status in PepcDB or PDB records
For “MWLDRRGWLRVLGHWRYDLRRPSFTRTWSGDKGPMAETVSTQVGTEGGLRASHQQNGDAGGDAKVELSPGPPKPAGREVEPAPVGGEHPSAAAPGPGKHKKRRGATRERVVPPPKKRRTGVSFGDEHFAETSYYFEGGLRKVRPYYFDFRTYCKGRWVGHSLLHVFSTEFRAQPLAYYEAAVRAGRLQLNEKPVQDLNIVLKDNDFLRNTVHRHEPPVTAEPIRLLAENEDVVVVDKPSSIPVHPCGRFRHNTVIFILGKEHQLKELHPLHRLDRLTSGVLMFAKTAAVSERIHEQVRDRQLEKEYVCRVEGEFPTEEVTCKEPILVVSYKVGVCRVDPRGKPCETVFQRLSYNGQSSVVRCRPLTGRTHQIRVHLQFLGHPILNDPIYNSVAWGPSRGRGGYIPKTNEELLRDLVAEHQAKQSLDVLDLCEGDLSPGLTDSTAPSSELGKDDLEELAAAAQKMEEVAEAAPQELDTIALASEKAVETDVMNQETDPLCAECRLVRQDPLPQDLVMFLHALRYKGPGFEYFSPMPAWAQDDWQKD”, the “soluble on expression in E. coli” value was “soluble”. With “MWNNVTTIKIQFHRIEQLGSVQLDDKNRICKFTSFDGQLELQGRHGRCSVDIESPEFVRFVQFLVNKTEKSNEPIDQRRVFGKFRALEHGVLDVTTYRNRFHGVVARNMILLDNLSIDLSIRMIFALSGKMETNFLSEVEKHGIVRLDNQNRIIEYVANDGKMKLKGQHDGRKDHGTQATQDPV” the “soluble on expression in E. coli” value was “not soluble”. With “MWPSNRGPTLFQYSIRCLGFVAFIGVVRCHCPHMMGVKPPGPPSGPSPPGKFPDGDEGWDYDETAAPGIVPEPHFIQSTYIYRSPNVQEKTFSSRVVNVLKDIRTRLAKSARLTLENENIECSSPTDHYRCQEYPASGTWNYLIVEDQQKGAVTYTFDRKFNEKNDGTIEMALLDAFSRHSPSSLIAFASSEAEKEVGYIRALTVQEMDSLSGKRSHQKISMEKFGPNELILLEPALLEVRTGANLKLNSDSLRRIDSTKEFDKLLEEFRNVFILFWNSNRMVSLHTFNLWSRVADKIKISEDTLLAHVPCHDNADFCQGLNSEDYHTVVSYRNGQNTGKTENIGDVEFYENWVELSLSGAIQRLPNESKLSEFKKGIVGGKKRSSVTIGVFPSDQDTSFQHFQIAAEKLSGKYYVAYFINENSKPAITTYRHAEKQKRTDYSGKFDPATLMEFITKSSIPSIIGISNGFTTDLLFHQKRPILIQIGGAGEFEPFSKLSARQDARKTYIFTKIDGESEMIKKTKKALGVGENESIIVFLNKDRVHRIPISKPKCPDHLQKILQMIITSEADQVLSTKEPHPLRYLQVEKVNEVFGFEETLVLPDHTLFLDSDPFSRHPPITEGGGGGCPFMQGGGAPTESSQHSEL” the “soluble on expression in E. coli” value was “not soluble”. In the case of “MWQLKKEQNVPIYRSIMEMIVQKIQTGELLPGEKIPSERKLAEYLSVNRSTVVHALDELVDLGWIVRKRGSGTIVNEGKWGVMMTPRTDWHRYLEQNVFKQVHPLVTEIELRAKQNLPTDLDMYTGELPLDLIPSFDFPALNWKQFLKEEAQDELGYLPLRKEIQAITATEYQLHLPSESLLLTSGAQQALFLVLQVLLRQGDSVAVEDPSFFYALPIFQAAGVRLFGVPMTEEGIDLEALEQTIRQHRIKMVMVNPSFQNPTGTVMPLRKREQLVKVCQTYQVPILEDDVFGQLSFIPKTEIPPLKKLDPDNVLYIGSLSKILGSTTKIGWLSAPASVTKQIAEARKMMDVSLSIFPQMLAKMAIEDPSFSEKITLLNKQVEQRATAVYQVFKSLSEWEVSPVKGGFYLWAHWRQGALKPEDWQVFLREGVLVAPSVAFSEKRGSIRLNCSRISPEEMPLFCERMVRITRQLSENRQTKIEQ”, the “soluble on expression in E. coli” value is reported as “not soluble”. For “MWRGKYSGGYQNRFVSAKSSGTSSLSDGKSMNNVPPPAALTVGNAPVPPPNRNILLSNRKEQEMKKEQEYANLMAYGSTSEKQSRRKRIYDDEYLEGGSDDEKPASSSSKLAADDDDEEDELDAFMAGIEKQASSDKKVSEQKEKDRKEGKDTEDPSKKGLGRADIDEEDMQESLFKFMEEYKEKHENDDEQLEYDEDGNIIWSWKKVIDPLPDIDHSQIQYQKFNKNFYEEHEDIKRLHYMDVIRLQNTMNLRVGGLKPPRPVCSFAHFSFDKLLMEAIRKSEYEQPTPIQAMAIPSALSGRDVLGIAKTGSGKTAAYLWPAIVHIMDQPDLKAGEGPVAVIVVPTRELAIQVFQEAKKFCKVYNINPICAYGGGSKWEQSNELQNEGAEMVVCTPGRIIDLVKMGATNFLRTTFLVFDEADRMFDMGFEAQVKSISDHVRPDRQCLMFSATFKQKVERLARDALVDPVRIVQGEVGEANADIEQKVFVMQNQDVKLHWLIRNLVEFASLGKVLIFVTKKLDSEDVAKKLKMKDFDIVLLHGDMLQAERNENLLKFRKKSQILVATDVAARGLDISEIRTVINFDMARDIDTHVHRIGRTGRAGHKGTAYTLVTEKDIEMVGHLVKNLESVSQEVPKPLMDLAMKSSWFRGQRAGNGGPSTGTQTRGRMGLGYTPKVRQVGGGATGAQFDPLKEQKSCRGGGNQTVDGMIRNAQSFATSSSSSSSSSSGPASGANRAQMLKSAFQKSFQTTFQRPTNESSNLPQQVASDPRPEWKKKVDELNAKIAQQQASSASGGSSSSSSSSKRSRWE”, the “soluble on expression in E. coli” value was “not soluble”. For “MWTVTKIRADYEGWWLFSDWPENIVEKYQYQDFDDMFKHYQQLINQCKVQFDNYVTGKYNIYAFYNNCDMNYCEDCEEDLQIFYSFIVLQNNEVYYKLPIIDLEHHHHHH”, the “soluble on expression in E. coli” value was “soluble”. For “MWYHRLSHLHSRLQDLLKGGVIYPALPQPNFKSLLPLAVHWHHTASKSLTCAWQQHEDHFELKYANTVMRFDYVWLRDHCRSASCYNSKTHQRSLDTASVDLCIKPKTIRLDETTLFFTWPDGHVTKYDLNWLVKNSYEGQKQKVIQPRILWNAEIYQQAQVPSVDCQSFLETNEGLKKFLQNFLLYGIAFVENVPPTQEHTEKLAERISLIRETIYGRMWYFTSDFSRGDTAYTKLALDRHTDTTYFQEPCGIQVFHCLKHEGTGGRTLLVDGFYAAEQVLQKAPEEFELLSKVPLKHEYIEDVGECHNHMIGIGPVLNIYPWNKELYLIRYNNYDRAVINTVPYDVVHRWYTAHRTLTIELRRPENEFWVKLKPGRVLFIDNWRVLHGRECFTGYRQLCGCYLTRDDVLNTARLLGLQA”, the “soluble on expression in E. coli” value was “not soluble”. In the case of “MYAMKEEDCLQTFHNLQDYQDQFHLHHHPQILPWSSTSLPSFDPLHFPSNPTRYSDPVHYFNRRASSSSSSFDYNDGFVSPPPSMDHPQNHLRILSEALGPIMRRGSSFGFDGEIMGKLSAQEVMDAKALAASKSHSEAERRRRERINTHLAKLRSILPNTTKTDKASLLAEVIQHMKELKRQTSQITDTYQVPTECDDLTVDSSYNDEEGNLVIRASFCCQDRTDLMHDVINALKSLRLRTLKAEIATVGGRVKNILFLSREYDDEEDHDSYRRNFDGDDVEDYDEERMMNNRVSSIEEALKAVIEKCVHNNDESNDNNNLEKSSSGGIKRQRTSKMVNRCYN”, the “soluble on expression in E. coli” value is reported as “soluble”. For “MYCIEEKIEKALGIKEASLVLKNCNIVNVFSSEIIRGDLAIDGDTIIGIGKYKGKTEIDLSNKYVAPGFIDSHVHIESSMVSPKEFARAVISRGTTTIIVDPHEIANVCGMDGIKYMMEETKNMPLDVFFMLSSCVPLEHHHHHH”, the “soluble on expression in E. coli” value was “not soluble”. In the case of “MYCPFCHNDQSRVIDSRVIDSGSAIRRRRECTQCKNRFTTVEKAQLLVVKRNGLTEPFSREKVIVGVRRACQGRDVSDDALKRLAQQVEERVRLHGSSQIHANEIGLAILEPLRELDEVAYLRFASVYKSFESADDFESEIRLMRRRDRSN”, the “soluble on expression in E. coli” value is reported as “not soluble”. For “MYDNTTDTKMQAERQKKSCTTVGGVLAYSVPTGLHRCDSAVTRVEEVHMAEMVEIPAALYGRGAVRVVPVDSTVRLDVKIPAALMRKLMIESNRSGVPLTKIVDRLLSAAIAQDSEQEEIRPR”, the “soluble on expression in E. coli” value was “not soluble”. In the case of “MYFPAAIDTSLAAEDLGIWAPIDHQRIISLLTIGLGVLYHREKAISLEPLPETMLDEGKASPVPDISLRDNSASQTPIIIEVCHTNGLKGDLRKVIQLIDDGDYGIQEGFIYDYRAGTWVLYRSGGDGLTQSTSFSDILQLDLNQFL”, the “soluble on expression in E. coli” value is reported as “not soluble”. In the case of “MYGRKLYNVDQTNVYASLMFETEFNKQNSFSAGLSFNYDAYDQHYRLENQTELPLIKAFAKEAVPGAYAQYTLNLNDQWMLMAGLRGDYSNEHGFFVTPRAHLKYNPNEYVHFRLSAGKGYRTNHVLAENNYLLSSSRKVEIAKGLDMEEAWNYGASVSTYVPVFGKTLNINAEYYYTDFLKQVVVDMDSNPHEVAFYNLDGRSYSHVFQVEASYPFFKGFTLTGAYRLTDAQTTYKGQRMEKPLTSKYKGLLTASYQTPLGIWQFDATLQLNGGGRMPSPYELADGQLSWERRYGSFEQLSAQITRYFRRWSVYIGGENLTNFKQKNPIIDAANPWGGNFDSTMIWGPVHGAKAYIGIRFNLARNE”, the “soluble on expression in E. coli” value is reported as “not soluble”. With “MYGVLVIGAPGAGKSTFCAGLTDIFSQTKRPFLTINLDPANDTMAYAPDVNITEMITVNDVMDRLGLGPNGALKYCIETLGANCNWLLQKIEANHKKYLIIDCPGQLELYKSEGELWKVIRFLEKSGVRLCALHLADSLYCSDPSKFISVALSTLATMVTMEMPQVNCLSKADLFSEDGTYDLEFFSHLPDVNRLLDLLNEVPGLEKYRKLNEAICGVISDFDLVSFVPLAVENKESMMKVIQMVDAANGFSLTEQGDIRELILNSKA” the “soluble on expression in E. coli” value was “not soluble”. With “MYHGMNPSNGDGFLEQQQQQQQPQSPQRLLAVILWFQLALCFGPAQLTGGFDDLQVCADPGIPENGFRTPSGGVFFEGSVARFHCQDGFKLKGATKRLCLKHFNGTLGWIPSDNSICVQEDCRIPQIEDAEIHNKTYRHGEKLIITCHEGFKIRYPDLHNMVSLCRDDGTWNNLPICQGCLRPLASSNGYVNISELQTSFPVGTVISYRCFPGFKLDGSAYLECLQNLIWSSSPPRCLALEGGRPEHLFPVLYFPHIRLAAAVLYFCPVLKSSPTPAPTCSSTSTTTSLF” the “soluble on expression in E. coli” value was “soluble”. With “MYILVTTGSMGFKRLFDAIVKSVIGKRIVIQTGKIDPTIYRNQNVTTFSFDPDLEKWIANASLVITHQGKTAMEAVVMYRKPVIMVYNNDWKSATTLSDAKKYAEILGATFLSDPITWSDYNVLLEAIENANEPNVFDTGTPNLVKHVLSEL” the “soluble on expression in E. coli” value was “soluble”. With “MYKILRTEKSWIEGSAVEQVKKLASLKGVENVIGYPDLHPGKTPIGISIITKDVIYPHLIGNDIGCSISLFETSELKRKFKVEKVMKTLQNSDLKNEIKKDFNLGTIGGGNHFAEFTLVDKILDESETTNFDKNKVYLLVHSGSRGLGEEILRKYIDYYSCQNGLAVNSEGFNNYISDYKKAVVFAKENRQLIAKNLCQLLNLKAFDLKIEAIHNGLELREDYIIHRKGAATALNKYVVIAGSRGDYSYIVKPINSSLETGFSIAHGAGRKWKRSGCKEKLQGKFSKKAIRNRSFSYNLICSNTNLVYEEAPEAYKNIDRVIDDLLSFNLIKVVARLKPLITYKDLEHHHHHH” the “soluble on expression in E. coli” value was “not soluble”. With “MYLTIKSIMLLRKYLLVTESQVSKCGFHIVKKKGDVLYPKRTKYSKYRKGRCSRGCKPDGTKLGFGRYGTKSCKAGRLSYRAIEAARRAIIGHFHRAMSGQFRRNGKIWVRVFADLPITGKPTEVRMGRGKGNPTGWIARVSTGQIPFEMDGVSLANARQAATLAAHKPCSSTKFVQWSLEHHHHHH” the “soluble on expression in E. coli” value was “not soluble”. With “MYNALYLYCSEYKYEDSIMTISIRLPSDLETRLNNLAAKTGRTKSFYLREIIERGIEEAEDYYLASQVRERVRKGEGTFYSSEEVRKELGLDD” the “soluble on expression in E. coli” value was “not soluble”. For “MYNDEELITVQPEAFKALTPSKKFNETSNKLLDLAYSDDGNNLIVSAEDVVLVYDLRDGSKGKSIECKKYGVNCLEYLDTVKCVHSGPNDTTIRLLHLQKKSYVRYFDGHRMPVNFIRTNPKDREKFLSSSVDGEIRMFDTRTFENYGCLLAGHTPLIAFDPDGILFAVATKSDTIKLFDMRSFDLGPFQSFIITKTDNDEWSDIEFSPCGKFILISTTAGSVKWIDAFDGTLIHSFSQHKNPNVSFF”, the “soluble on expression in E. coli” value was “not soluble”.
